Test system: primary human epidermal keratinocytes
Assay: Keratinocyte dissociation (dispase) assay
Type: cell-based
Conditions: FIG. 5M-5O
Experimental: The keratinocyte dissociation assay was performed as previously described (Payne et al., 2005), using either PV scFv at 5 μg/mL or PV sera at dilutions of 1:5 to 1:7.5 in 500 μL total volume defined keratinocyte-serum free media (Gibco/Invitrogen). For antibodies that only recognize Dsg3, 1 μg/mL exfoliative toxin A (ETA) was added to wells for the last two hours. For antisera depletion assays, 200 μL of PV sera flowthrough (representing a volume of 100 μL, sera, combined with the first 1-volume fraction of the PBS wash) were incubated with cells in a total volume of 500 μL, with or without ETA treatment. Dissociation assays used the total eluate from the antisera columns, concentrated to a volume of 100 μl (representing a starting volume of 250 μL sera).
The question of whether the in vitro inhibition of Dsg binding by ELISA translated into a functional block of antibody pathogenicity was investigated. It was previously shown that neonatal mouse injection is suboptimal for evaluation of pathogenicity of PV mAbs, due to differences in the specificity of mAbs for human versus mouse Dsg substrates. Therefore, the inhibition of mAb pathogenicity was evaluated by a dispase assay using cultured primary human keratinocytes. […]

B1: Exfoliative toxin A: exfoliative toxin A, inactivates Dsg1 (protein, UniProt P09331 39-280, looked up)
Exfoliative toxin A: EVSAEEIKKHEEKWNKYYGVNAFNLPKELFSKVDEKDRQKYPYNTIGNVFVKGQTSATGVLIGKNTVLTNRHIAKFANGDPSKVSFRPSINTDDNGNTETPYGEYEVKEILQEPFGAGVDLALIRLKPDQNGVSLGDKISPAKIGTSNDLKDGDKLELIGYPFDHKVNQMHRSEIELTTLSRGLRYYGFTVPGNSGSGIFNSNGELVGIHSSKVSHLDREHQINYGVGIGNYVKRIINEKNE
For B1, the “pathogenicity in the keratinocyte dissociation (dispase) assay” value was “do not demonstrate significant pathogenicity”.

— patent US8298545B2, “Anti-autoimmune antibodies for treatment of pemphigus” (The Trustees of the University of Pennsylvania, priority 2007, dated 2012)
